Positions count from the first letter of the chain named.

The record followed here is patent US20190127480A1 (Regeneron, published 2019).

B1: H1H11797P2 (antibody, human IgG1, V domains shown)
VH: QVQLVESGGGVVQPGRSLRLSCAASGFSFSGYGMHWVRQAPGKGLEWVAVTWYDGSNKYYADSVKGRFTISRDNSKNTLYLQMNSLRAEDTAVYYCARDGNWGGPYWYFDLWGRGTLVTVSS
VL: DIQMTQSPSSLSASVGDSVTITCRASQSINNYLNWYQQKPGKAPKLLIYTASSLLSGVPSRFSGSGSGTDFTLTISGLHPEDFATYFCQQSFSTPPITFGQGTRLDIK
notes: human IgG1
B2: H1H3465P (antibody, human IgG1, V domains shown)
VH: QVQLVESGGGVVQPGRSLRLSCAASGFTFITYGMHWVRQAPGKGLEWVAIIYYDESNKYYADSVKGRFTISRDISKNTLYLQMNGLRAEDTAVYYCARAPRVAVEEDYSYYYGMDVWGQGTTVTVSS
VL: DIQMTQSPSSLSASVGDRVTITCRASQGIRNDLGWYQQKPGRAPKRLIYGASNLQSGVPSRFSGSGSGTEFTLTISSLQPEDFATYYCLQHNSHPYTFGQGTKLEIK
notes: human IgG1; also called PSMA-VH-3465 (its HCVR)
B3: H1H7269P (monovalent 1-arm) (antibody, human IgG1, V domains shown)
VH: QVQLVESGGGLVQPGRSLRLSCAASGFKFDDYTMHWVRQGPGKGLEWVSDISWSGGSIDYTDSVKGRFSISRDNAKNSLYLQMNSLRVEDTALYYCVKDKSGYGKYSYGLDVWGQGTTVTVSS
VL: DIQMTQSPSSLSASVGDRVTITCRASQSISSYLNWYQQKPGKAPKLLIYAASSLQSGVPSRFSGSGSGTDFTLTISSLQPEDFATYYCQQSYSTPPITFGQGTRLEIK
notes: Monovalent 1-arm: second Fab removed, only the Fc portion (CH2-CH3) expressed; human IgG1 Fc; tied by numerical identifier; also called H1H7269B
B4: H1H7203P (monovalent 1-arm) (antibody, human IgG1, V domains shown)
VH: EVQLVQSGGGLVQPGRSLRLSCAASGFTFADYTMHWVRQTPGKGLEWVSGISWNSGSKDYADSVKGRFTISRDNAKNSLYLQMNSLRTEDTALYYCAKYGSGYGRYFFYAMDVWGQGTTVTVSS
VL: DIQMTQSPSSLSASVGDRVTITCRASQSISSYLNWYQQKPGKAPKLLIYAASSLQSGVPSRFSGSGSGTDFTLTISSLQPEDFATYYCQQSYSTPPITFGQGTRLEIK
notes: Monovalent 1-arm: second Fab removed, only the Fc portion (CH2-CH3) expressed; human IgG1 Fc; tied by numerical identifier; also called H1H7203B
B5: H1H7233P (monovalent 1-arm) (antibody, human IgG1, V domains shown)
VH: EVQLVESGGGLVQPGGSLRLSCEASGFTFADYTLHWVRQAPGKGLEWVSDISWNSGTRGYADSVRGRFTISRDNAKKSLYLQMNSLRSEDTALYYCVKDGSGYGRYNFYAMDVWGQGTTVTVSS
VL: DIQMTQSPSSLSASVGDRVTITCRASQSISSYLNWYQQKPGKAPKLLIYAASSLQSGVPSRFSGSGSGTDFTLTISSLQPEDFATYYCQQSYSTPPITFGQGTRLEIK
notes: Monovalent 1-arm: second Fab removed, only the Fc portion (CH2-CH3) expressed; human IgG1 Fc; tied by numerical identifier; also called H1H7233B
B6: H1H7242P (monovalent 1-arm) (antibody, human IgG1, V domains shown)
VH: EVQLVESGGGLVQPGRSLRLSCAASGFTFDDYTMHWVRQGPGKGLEWVSDIGWNSNSIGYADSVKGRFTISRDNAKNSLYLQMNSLRPEDTALYFCVKDKSGYGKFFIGLDVWGQGTMVTVSS
VL: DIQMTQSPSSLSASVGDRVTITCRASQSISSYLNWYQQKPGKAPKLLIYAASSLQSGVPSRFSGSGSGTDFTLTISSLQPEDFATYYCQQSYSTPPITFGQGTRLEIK
notes: Monovalent 1-arm: second Fab removed, only the Fc portion (CH2-CH3) expressed; human IgG1 Fc; tied by numerical identifier; also called H1H7242B
B7: H1H7254P (monovalent 1-arm) (antibody, human IgG1, V domains shown)
VH: B6 VH with L11V, T28K, D31G, S57T
VL: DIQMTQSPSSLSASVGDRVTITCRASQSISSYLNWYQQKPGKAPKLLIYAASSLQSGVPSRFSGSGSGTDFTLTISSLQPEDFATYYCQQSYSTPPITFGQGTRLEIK
notes: Monovalent 1-arm: second Fab removed, only the Fc portion (CH2-CH3) expressed; human IgG1 Fc; tied by numerical identifier; also called H1H7254B
B8: H1H7250P (monovalent 1-arm) (antibody, human IgG1, V domains shown)
VH: B6 VH with E1Q, S57T, I58K
VL: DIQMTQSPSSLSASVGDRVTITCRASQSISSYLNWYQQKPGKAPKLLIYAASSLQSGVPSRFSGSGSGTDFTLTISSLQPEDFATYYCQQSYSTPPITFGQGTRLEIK
notes: Monovalent 1-arm: second Fab removed, only the Fc portion (CH2-CH3) expressed; human IgG1 Fc; tied by numerical identifier; also called H1H7250B
B9: H1H7251P (monovalent 1-arm) (antibody, human IgG1, V domains shown)
VH: EVQLVESGGGLVQPGRSLRLSCAASGFTFADYTMHWVRQGPGTGLEWVSDIGWSGGSLGYADSVKGRFTISRDNAKNSLYLEMNNLRPEDTALYYCVKDKSGYGKFQYGLDVWGQGTTVTVSS
VL: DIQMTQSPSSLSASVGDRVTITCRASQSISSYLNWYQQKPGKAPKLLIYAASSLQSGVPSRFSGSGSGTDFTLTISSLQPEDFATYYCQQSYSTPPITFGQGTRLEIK
notes: Monovalent 1-arm: second Fab removed, only the Fc portion (CH2-CH3) expressed; human IgG1 Fc; tied by numerical identifier; also called H1H7251B
B10: H1H7258P (monovalent 1-arm) (antibody, human IgG1, V domains shown)
VH: B6 VH with E1Q, S57T, K76R, F95Y, F107Q, I108Y, M118T
VL: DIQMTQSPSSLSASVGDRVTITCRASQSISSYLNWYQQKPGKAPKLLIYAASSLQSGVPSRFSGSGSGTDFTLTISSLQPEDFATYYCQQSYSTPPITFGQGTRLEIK
notes: Monovalent 1-arm: second Fab removed, only the Fc portion (CH2-CH3) expressed; human IgG1 Fc; tied by numerical identifier; also called H1H7258B
B11: H1H7241P (monovalent 1-arm) (antibody, human IgG1, V domains shown)
VH: B6 VH with D30A, S57T, T69A, F95Y, F107Q, I108Y, M118T
VL: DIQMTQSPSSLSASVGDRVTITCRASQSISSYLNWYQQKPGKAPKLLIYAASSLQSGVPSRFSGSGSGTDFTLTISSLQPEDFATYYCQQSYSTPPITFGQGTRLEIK
notes: Monovalent 1-arm: second Fab removed, only the Fc portion (CH2-CH3) expressed; human IgG1 Fc; tied by numerical identifier; also called H1H7241B
B12: H1H7204P (monovalent 1-arm) (antibody, human IgG1, V domains shown)
VH: EVQLVESRGALVQPGRSLRLSCAASGFAFNDYTMHWVRQAPGKGLEWVSDISWNSNSKDYADSVKGRFTISRDNAKNSLYLQMNSLRAEDTALYYCVKDGSGYGKFSLYALDVWGQGTTVTVSS
VL: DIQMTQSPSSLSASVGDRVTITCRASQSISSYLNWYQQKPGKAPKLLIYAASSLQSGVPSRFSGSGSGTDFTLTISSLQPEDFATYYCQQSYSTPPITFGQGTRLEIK
notes: Monovalent 1-arm: second Fab removed, only the Fc portion (CH2-CH3) expressed; human IgG1 Fc; tied by numerical identifier; also called H1H7204B
B13: H1H7226P (monovalent 1-arm) (antibody, human IgG1, V domains shown)
VH: EVQLVQSGGGLVQPGRSLRLSCAASGFTFSDYTMHWVRQGPGKGLEWVSDISWNSGSKGYTDSVKGRFTISRDNAKKSLYLQMNSLRAEDTALYYCVKDGSGYGKYHFYAMDVWGQGTLVTVSS
VL: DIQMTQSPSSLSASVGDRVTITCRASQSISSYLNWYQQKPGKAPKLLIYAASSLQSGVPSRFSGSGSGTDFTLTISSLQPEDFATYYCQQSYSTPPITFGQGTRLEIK
notes: Monovalent 1-arm: second Fab removed, only the Fc portion (CH2-CH3) expressed; human IgG1 Fc; tied by numerical identifier; also called H1H7226B
B14: H1H7211P (monovalent 1-arm) (antibody, human IgG1, V domains shown)
VH: EVQLVESGGGLVHPGRSLRLSCTASGFKFADYTMHWVRQAPGKGLEWVSDISWNSGSKGYADSVKGRFTISRDNDKNSLYLQMNSLRGEDTALYYCAKDGSGYGRFHFYAIDVWGQGTTVTVSS
VL: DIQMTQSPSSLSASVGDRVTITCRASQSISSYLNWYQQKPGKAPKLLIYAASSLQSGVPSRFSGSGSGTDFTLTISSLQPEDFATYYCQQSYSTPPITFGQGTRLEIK
notes: Monovalent 1-arm: second Fab removed, only the Fc portion (CH2-CH3) expressed; human IgG1 Fc; tied by numerical identifier; also called H1H7211B

T2 sequence (P07766 23-126 limits assumed, stated change not applied, chain 1 of 2): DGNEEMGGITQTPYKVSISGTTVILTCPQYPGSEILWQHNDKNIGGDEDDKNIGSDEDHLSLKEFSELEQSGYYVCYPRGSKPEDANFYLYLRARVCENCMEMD
T2 sequence (P04234 22-105 limits assumed, stated change not applied, chain 2 of 2): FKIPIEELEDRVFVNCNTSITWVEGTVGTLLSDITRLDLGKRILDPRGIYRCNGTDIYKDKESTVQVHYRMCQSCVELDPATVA
T1 sequence (Q04609 other isoform, or with tags, fused parts or gaps limits assumed): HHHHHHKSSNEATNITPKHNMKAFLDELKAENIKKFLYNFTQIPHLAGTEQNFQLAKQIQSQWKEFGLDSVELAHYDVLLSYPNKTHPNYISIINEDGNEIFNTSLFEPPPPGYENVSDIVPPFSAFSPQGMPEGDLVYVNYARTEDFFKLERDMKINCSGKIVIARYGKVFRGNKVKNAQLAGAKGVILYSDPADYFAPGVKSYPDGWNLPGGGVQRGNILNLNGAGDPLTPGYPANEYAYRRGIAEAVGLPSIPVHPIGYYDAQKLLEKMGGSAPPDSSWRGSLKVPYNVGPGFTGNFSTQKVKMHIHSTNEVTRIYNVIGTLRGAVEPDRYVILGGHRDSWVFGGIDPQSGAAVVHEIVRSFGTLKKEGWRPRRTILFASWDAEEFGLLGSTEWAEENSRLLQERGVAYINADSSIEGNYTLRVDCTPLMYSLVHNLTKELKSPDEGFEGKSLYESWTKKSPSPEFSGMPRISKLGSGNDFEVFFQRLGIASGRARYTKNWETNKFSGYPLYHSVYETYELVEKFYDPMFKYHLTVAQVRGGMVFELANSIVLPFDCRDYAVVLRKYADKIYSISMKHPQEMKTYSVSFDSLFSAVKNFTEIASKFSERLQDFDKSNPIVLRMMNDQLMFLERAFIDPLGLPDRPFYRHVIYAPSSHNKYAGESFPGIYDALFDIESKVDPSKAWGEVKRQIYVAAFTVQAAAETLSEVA

One test has as its target T1, human PSMA expressed with an N-terminal hexahistidine tag (6h.hPSMA, R&D) (human, UniProt Q04609 44-750).
T1 construct: Bought soluble protein; also called soluble human PSMA; human PSMA protein
Briefly: SPR Biacore T-200, 37 C, antibody-capture (anti-human Fc), 6h.hPSMA as analyte. As for the experimental part:
In this example, anti-PSMA antibodies were assessed for their ability to bind to human PSMA. […] Measurements were conducted on a Biacore™ T-200 instrument (GE Healthcare).
Briefly, a CM5 Biacore™ sensor surface was derivatized via amine coupling with a monoclonal mouse anti-human Fc antibody (GE, # BR-1008-39) or monoclonal goat anti-mouse Fc antibody (GE, # BR-1008-38) to capture purified anti-PSMA antibodies. Binding studies were performed in HBSP++ buffer composed of 0.01M HEPES, 0.15M NaCl, 2 mM Ca²⁺, 2 mM Mg²⁺, 0.05% v/v Surfactant P20, pH7.4. Varying concentrations of human PSMA expressed with an N-terminal hexahistidine tag (6h.hPSMA, R&D) prepared in HBSP++ running buffer (ranging from 50 to 0.78 nM, 4-fold dilutions) were injected over the anti-PSMA antibody captured surface at a flow rate of 30 μL/minute. Antibody-reagent association was monitored for 2 minutes while dissociation in HBSP++ running buffer was monitored for 8 minutes.
Kinetic association (kₐ) and dissociation (kd) rate constants were determined by fitting the real-time sensorgrams to a 1:1 binding model using Scrubber 2.0c curve fitting software. Binding dissociation equilibrium constants (KD) and dissociative half-lives (t½) were calculated from the kinetic rate constants as: KD (M)=kd/kₐ; and t_{1/2} (min)=(ln 2/(60*kd).
On to B1, for which the Kd stood at 3.74 nM, the koff was determined as 0.00063 s⁻¹, the kon stood at 168000 M⁻¹ s⁻¹ and the “t1/2” value was determined as 18.3 min.
For B2, binding was put at a Kd of 0.227 nM, the koff was found to be 6.06e-05 s⁻¹, the kon was found to be 267000 M⁻¹ s⁻¹ and the “t1/2” value turned out to be 191 min.

The next test has as its target T2, Soluble heterodimeric CD3 protein (hCD3-epsilon/hCD3-delta) with either a human Fc tag (hFcΔAdp/hFc) or a … (human, UniProt P07766 23-126; P04234 22-105).
T2 construct: also called hCD3ε/δ; not shown: Fc tag: human (hFcΔAdp/hFc)
As to the kind of experiment: SPR Biacore 25C antigen-capture, 1-arm. As for the experimental part:
In the antigen-capture format, heterodimeric CD3 protein was captured using a rabbit anti-mouse Fc or mouse anti-human Fc and the respective antibodies were injected over the captured antigen.
(§1) Kinetic association (kₐ) and dissociation (kd) rate constants were determined by processing and fitting the data to a 1:1 binding model using Scrubber 2.0 curve fitting software. Binding dissociation equilibrium constants (KD) and dissociative half-lives (t₁₁₂) were calculated from the kinetic rate constants as: KD (M)=kd/kₐ; and t_{1/2} (min)=(ln 2/(60*kd). NT=not tested; NB=no binding observed.
Regarding B3, the Kd stood at 24.9 nM, the “T½” value was 2 min, the koff stood at 0.00689 s⁻¹ and the kon was 277000 M⁻¹ s⁻¹.
On the same counts, the results for B4 are 0.498 nM, 48 min, 0.000238 s⁻¹ and 479000 M⁻¹ s⁻¹.
As to B5, the Kd stood at 1.27 nM, the “T½” value was found to be 57 min, the koff was 0.000204 s⁻¹ and the kon is 161000 M⁻¹ s⁻¹.
Consider B6, for which the Kd came out at 2.63 nM, the “T½” value stood at 11 min, the koff was determined as 0.00101 s⁻¹ and the kon is 383000 M⁻¹ s⁻¹.
The corresponding values for B7 are 0.762 nM, 35 min, 0.00033 s⁻¹ and 433000 M⁻¹ s⁻¹.
Regarding B8, the Kd turned out to be 0.82 nM, the “T½” value stood at 61 min, the koff worked out at 0.000189 s⁻¹ and the kon turned out to be 231000 M⁻¹ s⁻¹.
The corresponding values for B9 are 2.67 nM, 10 min, 0.00119 s⁻¹ and 447000 M⁻¹ s⁻¹.
As for B10, binding was characterised by a dissociation constant (Kd) of 2.18 nM, the “T½” value came to 40 min, the koff worked out at 0.00029 s⁻¹ and the kon is 133000 M⁻¹ s⁻¹.
On the same counts, the results for B11 are 1.26 nM, 49 min, 0.000236 s⁻¹ and 187000 M⁻¹ s⁻¹.
On the same counts, the results for B12 are 2.12 nM, 32 min, 0.000365 s⁻¹ and 173000 M⁻¹ s⁻¹.
On the same counts, the results for B13 are 0.565 nM, 49 min, 0.000236 s⁻¹ and 418000 M⁻¹ s⁻¹.
Consider B14, for which the affinity, expressed as Kd, was 0.279 nM; the “T½” value was 120 min; the koff was determined as 9.61e-05 s⁻¹; the kon was 345000 M⁻¹ s⁻¹.

The next test deals with T2, Soluble heterodimeric CD3 protein …. Briefly: SPR Biacore 25C antibody-capture, 1-arm. As for the experimental part:
Soluble heterodimeric CD3 protein (hCD3-epsilon/hCD3-delta; SEQ ID NOs:1652/1653) with either a human Fc tag (hFcΔAdp/hFc; SEQ ID NOs:1683/1684) or a mouse Fc tag (mFcΔAdp/mFc; SEQ ID NOs:1685/1686) was injected over the antibody captured surface and the binding response was recorded. Heterodimeric CD3 protein was purified using the method described in Davis et al. (US2010/0331527).
as §1
Take B3: the affinity, expressed as Kd, was 243 nM; the “T½” value came out at 2 min; the koff stood at 0.00624 s⁻¹; the kon came to 25700 M⁻¹ s⁻¹.
On the same counts, the results for B4 are 18.3 nM, 43 min, 0.000267 s⁻¹ and 14600 M⁻¹ s⁻¹.
B5: the Kd was 24.2 nM, the “T½” value worked out at 43 min, the koff stood at 0.000269 s⁻¹ and the kon came out at 11100 M⁻¹ s⁻¹.
Turning to B6, the Kd stood at 30.9 nM, the “T½” value came to 17 min, the koff was 0.000664 s⁻¹ and the kon stood at 21500 M⁻¹ s⁻¹.
On to B7, for which the Kd stood at 14.9 nM, the “T½” value amounted to 30 min, the koff stood at 0.000388 s⁻¹ and the kon is 26000 M⁻¹ s⁻¹.
The corresponding values for B8 are 10.5 nM, 47 min, 0.000247 s⁻¹ and 23400 M⁻¹ s⁻¹.
The corresponding values for B9 are 41.7 nM, 11 min, 0.00107 s⁻¹ and 25600 M⁻¹ s⁻¹.
On the same counts, the results for B10 are 24 nM, 38 min, 0.000302 s⁻¹ and 12600 M⁻¹ s⁻¹.
For B11, the affinity, expressed as Kd, was 22 nM; the “T½” value amounted to 39 min; the koff was 0.000295 s⁻¹; the association rate constant (kon) turned out to be 13400 M⁻¹ s⁻¹.
With B12, the Kd worked out at 25.3 nM, the “T½” value stood at 32 min, the koff turned out to be 0.000362 s⁻¹ and the kon came to 14300 M⁻¹ s⁻¹.
On the same counts, the results for B13 are 27.2 nM, 33 min, 0.000355 s⁻¹ and 13000 M⁻¹ s⁻¹.
For the molecule B14, the Kd amounted to 11.3 nM, the “T½” value was 73 min, the koff was determined as 0.000159 s⁻¹ and the kon was determined as 14100 M⁻¹ s⁻¹.

As usually defined, the Kd is the concentration at which binding is half-saturated. Read a high Kd as lower affinity. As usually defined, the koff is a measure of how fast the partners let go of each other. Usually kon stands for the second-order rate constant of association.
